These results are taken from patent US20120121591A1 (priority 2009, published 2012).

One assay addresses human Kv1.3 (Homo sapiens, UniProt P22001). Kind of assay: cell-based or functional assay.
The next assay deals with human Kv1.1 (Homo sapiens, UniProt Q09470). Nature of the assay: cell-based or functional assay.
human Kv1.1, sequence (Q09470 whole entry): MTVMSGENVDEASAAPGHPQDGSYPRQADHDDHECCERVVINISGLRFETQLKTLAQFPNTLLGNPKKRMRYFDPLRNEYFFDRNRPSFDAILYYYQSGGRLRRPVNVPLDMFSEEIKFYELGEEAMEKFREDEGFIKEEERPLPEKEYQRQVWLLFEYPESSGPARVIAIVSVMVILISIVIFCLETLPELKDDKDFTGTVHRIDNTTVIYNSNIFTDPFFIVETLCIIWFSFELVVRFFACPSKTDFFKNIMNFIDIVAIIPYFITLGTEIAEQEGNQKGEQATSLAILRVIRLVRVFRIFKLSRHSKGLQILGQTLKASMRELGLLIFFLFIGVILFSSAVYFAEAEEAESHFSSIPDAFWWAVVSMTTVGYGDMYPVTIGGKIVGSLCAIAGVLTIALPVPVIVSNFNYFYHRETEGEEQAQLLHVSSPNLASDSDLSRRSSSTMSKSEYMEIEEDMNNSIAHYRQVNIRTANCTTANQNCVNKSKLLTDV

human Kv1.3, sequence (P22001 whole entry): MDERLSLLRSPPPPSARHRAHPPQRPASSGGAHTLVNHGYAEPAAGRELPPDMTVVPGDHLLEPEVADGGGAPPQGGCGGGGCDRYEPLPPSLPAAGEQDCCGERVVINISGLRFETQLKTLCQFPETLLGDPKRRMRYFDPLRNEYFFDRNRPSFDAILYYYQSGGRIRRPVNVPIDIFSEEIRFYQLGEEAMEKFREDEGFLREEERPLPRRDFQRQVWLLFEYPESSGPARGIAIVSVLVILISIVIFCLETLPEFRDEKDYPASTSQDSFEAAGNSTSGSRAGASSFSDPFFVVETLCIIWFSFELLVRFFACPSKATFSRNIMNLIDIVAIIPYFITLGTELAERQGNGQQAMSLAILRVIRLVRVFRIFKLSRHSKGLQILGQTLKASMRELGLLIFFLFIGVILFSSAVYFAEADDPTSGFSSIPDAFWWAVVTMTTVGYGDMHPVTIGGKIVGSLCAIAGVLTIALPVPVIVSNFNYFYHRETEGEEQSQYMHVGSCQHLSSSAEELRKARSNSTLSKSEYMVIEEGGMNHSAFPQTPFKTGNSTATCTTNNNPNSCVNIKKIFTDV

As to “[Glu4; Lys16,29; 1-Nal26;Arg30]ShK-amide (peptide)”, in the assay with human Kv1.3, the Kv1.3 (IWQ) IC50 was 0.384 nM, the WB (IFNg) IC50 worked out at 0.598 nM and the WB (IL-2) IC50 stood at 0.712 nM.
For “[Glu4; Lys16,29;Arg18,30; Nle21]ShK-amide (peptide)” the same measures were 0.269 nM, 1.33 nM and 1.96 nM.
The substance “[Glu4;Lys16,29;1-Nal26;Arg30;Nle21]ShK-amide (peptide)” showed a Kv1.1 (IWQ) IC50 with human Kv1.1 of 3.3 nM. In the assay with human Kv1.3, this substance came in with a Kv1.3 (IWQ) IC50 of 1.66 nM, a WB (IFNg) IC50 of 17.4 nM and a WB (IL-2) IC50 of 10.7 nM.
